In the DeepSol protein solubility set:

test: soluble on expression in E. coli; label from the status in PepcDB or PDB records

Sequence	soluble on expression in E. coli
MALKDLFSGFFVVEEEDDELEAPPEENEQQERQQPKQQAQSQNQFTEQPRNVNSERPRSIQSVPKKQSTRLQQSSGERKYQMNNTTSKNNARNVVNMNNQEQENYDFTQESSKMCLFEPRVFSDTQDIADELKNRRATLVNLQRIDKVSAKRIIDFLSGTVYAIGGDIQRVGSDIFLCTPDNVEVAGSITDQIENMEYQGELEHHHHHH	not soluble
MKKVKLIGTLDYGKYRYPKNHPLKIPRVSLLLRFKDAMNLIDEKELIKSRPATKEELLLFHTEDYINTLMEAERSQSVPKGAREKYNIGGYENPVSYAMFTGSSLATGSTVQAIEEFLKGNVAFNPAGGMHHAFKSRANGFCYINNPAVGIEYLRKKGFKRILYIDLDAHHCDGVQEAFYDTDQVFVLSLHQSPEYAFPFEKGFLEEIGEGKGKGYNLNIPLPKGLNDNEFLFALEKSLEIVKEVFEPEVYLLQLGTDPLLEDYLSKFNLSNVAFLKAFNIVREVFGEGVYLGGGGYHPYALARAWTLIWCELSGREVPEKLNNKAKELLKSIDFEEFDDEVDRSYMLETLKDPWRGGEVRKEVKDTLEKAKASS	soluble
MAHHHHHHMKSSSKDLCKYFCRKCNNFIYYNEACELIYKKIYPDYYKIYYNKYEFDKKTKGKKEVNPKQYDNLYRQLYNNGLCGVNKQRNDFLNKDNINNILLFLNKGSIQCNKCNHIHMWYMK	soluble
SSVPPGSIIVSDWHRCPDSREFFSKILHKKRRRKFGLLEAPMMPPQMNVDLVRYKVFLSGKTGVGKSALAARLAGLDLPKMHYETTGIETTVVFWPVRLKESGRVLFFRFELWDCGESAMRRFDHMLLSCKEKVDAILFLFSFTDRGSFDDLTNQISRITEPSDRVVKLVVGTKFDLFMHTDVTESDVTHFQEVWGLPVFRVGGDVSAGLGEVAPLLNALAENLWHQDCMAASSVSISPQAALRETSSEIIV	not soluble
MAFNDCFSLNYPGNPCPGDLIEVFRPGYQHWALYLGDGYVINIAPVDGIPASFTSAKSVFSSKALVKMQLLKDVVGNDTYRINNKYDETYPPLPVEEIIKRSEFVIGQEVAYNLLVNNCEHFVTLLRYGEGVSEQANRAISTVEFVTAAVGVFSFLGLFPKGQRAKYYLEHHHHHH	soluble
EGFRIAFISDLHYKSLLKEKGLNNLVDLLIAQKPDVLLMGGDYQEGCEYVEPLFAALARVKTPMGTFGVMGNNDYERCHDEIIRTMKHYGMRPLEHEVDTLRKDGQQIILAGVRNPFDLKQNGVSPTLALSPNDFVILLVHTPDYVEDVSVANTDIALAGHTHGGQVRVFGYAPIQNSHYGTRF	not soluble
MAHHHHHHMLCTFTTLHERIRILTDAHQLILPEELEAEFPDEAQLIKSMLAANPLQRPQIRKFLRQINKLIVALEAQESDEEAEKPPPPSPLDGTEHSESRNGNDEAATAALVDDSASALATATATSKLGNTPLSTSVAAASSSRGRPVAADLASGGHADSFSDVQDSFSSPLGEQKSRVALLPVFHSEAATGTSVAATSPMAATTSVHDTNAASAGKHVTRRGDSLASLHASTMVKRGNTYHHRRRGSASPNMEAEIGRLHICEMVATGSASRQGFFANDPYGLPTTPVMYTEDADLSTILKRDLQDRTVSAPD	not soluble
MAKEKKRGFFSWLGLGRQSEEPAAEPLATEKEGVTEQEDVIEQTGVIEPTDVIEQTVEHVISEKTTEAPAENAFIEVELREQVAAVIPTEPNNAIMSEGVPDTLPERAVAESVVAELVETGDNAAIVHDEIIEPITQVTEAGGELSLVKPGIEGDTTEQGGPTDNLPKRSLTEDNLIIDVPTPQAVVEESRVDAVEQPTETSEVEEVEEVEEVEEVEEVEEKIIPVAAQEQERPTKEGFFARLKRSLIKTKQNLGSGFMGLFSGKKIDDDLFEELEEQLLIADVGVETTRKIITSLTEHTSRKQLKDADALYGKLKEEMSEILSKVDKPLDVSGKSPYVILMVGVNGVGKTTTIGKLARQFQAEGKSVMLAAGDTFRAAAVEQLQVWGERNKIAVVAQHTGADSASVIFDAIQAAKARGIDVLLADTAGRLQNKAHLMEELKKIVRVMKKLDGDAPHEVMLTLDASTGQNAVSQAKLFNEAVGLTGITLTKLDGTAKGGVIFAIADQFEIPIRYIGVGEGIEDLRPFKADEFIEALFARED	not soluble
MIKVVGLGPGSKNALTLGTLEAVKNSQNIFFRTKKHPVVEYFDEIGIKYSTYDDKYETGESFDEVYDFIARDLVSKAKELKDIVYAVPGHPLVAEKSVQILIELCEKENIKVDIVPAVSFIDALMESLKIDPVKGLKIVDAFDIKNQILDKRLGIVITQVYNSFIASDVKLALLEYYKDDTEIYFVRAAGIENEESVRKIPLYELDRQSDIDYLTSVYVPCDINNNKDFYDLLNIMEILRGENGCPWDREQSHDTIKRALIEECYEAVEAIEKNDDDMMVEELGDVLFQVVFHAKIGKDEGYFNINDVISGICNKMIERHPHVFKNEQIKNSTEVLQKWDEIKRKQQDLNSYTEEMKHIPKILPALIRAEKVQKKASKVGFDFRNVEEALDKVLEETREVKDVYKGIIRDRIAEEVGDLIFSVVNIARLLDIDSEFALNYTIDKFIKRFYYIEKAAKDKNLKIESMSLEEMNALWDEAKLKIQ	not soluble
MAMSQQDLPTLFYSGKSNSAVPIISESELQTITAEPWLEISKKGLQLEGLNFDRQGQLFLLDVFEGNIFKINPETKEIKRPFVSHKANPAAIKIHKDGRLFVCYLGDFKSTGGIFAATENGDNLQDIIEDLSTAYCIDDMVFDSKGGFYFTDFRGYSTNPLGGVYYVSPDFRTVTPIIQNISVANGIALSTDEKVLWVTETTANRLHRIALEDDGVTIQPFGATIPYYFTGHEGPDSCCIDSDDNLYVAMYGQGRVLVFNKRGYPIGQILIPGRDEGHMLRSTHPQFIPGTNQLIICSNDIEMGGGSMLYTVNGFAKGHQSFQFQLEHHHHHH	soluble
MAHHHHHHMNDSISSPIKATCRDMALKSSLHSFTFSLKDFDIAGFLGDGAHGSVFLACERRTNFICVLKCISKSHLVKSTQEALLRKEIELQAHLKHPHIACMYTWFHTSSHVFFVMEYCSNGDLFTYLNENGPFCEKKVAEMLFEIIWAIRTCHDKRIAHLDLKPENVLVNHEEKCKLADFGLSAHIGSKHKKKGISHYRGTHDYWSPEQCARHQKKKQNFGEFDQKTDIWTLGILAFELKFGRPPFGSTNEERENVIMNRIQDYHWSQLFCEKVKQDLIDKLSPEFKDFLNLCLDKNPKKRPTAESLIQHPFIFIHNKNRSCIKSYATQPRGKQGPKLSHKGFNEQDGSFLTPIWFHNK	soluble
HNNLLSQLGSSHNSITYDIIFGNKDTKNYYAQFAKKHQTHLYSQISSSNQQELKYVDNDPNLKIKEEAAKSTVQNLTVYS	soluble
TIPKWWKEAVFYQVYPRSFKDTNGDGIGDINGIIEKLDYLKALGIDAIWINPHYDSPNTDNGYDIRDYRKIMKEYGTMEDFDRLISEMKKRNMRLMIDVVINHTSDQNEWFVKSKSSKDNPYRGYYFWKDAKEGQAPNNYPSFFGGSAWQKDEKTNQYYLHYFAKQQPDLNWDNPKVRQDLYAMLRFWLDKGVSGLRFDTVATYSKIPDFPNLTQQQLKNFAAEYTKGPNIHRYVNEMNKEVLSHYDIATAGEIFGVPLDQSIKFFDRRRDELNIAFTFDLIRLDRDSDQRWRRKDWKLSQFRQIIDNVDRTAGEYGWNAFFLDNHDNPRAVSHFGDDRPQWREPSAKALATLTLTQRATPFIYQGSELGMTNYPFKAIDEFDDIEVKGFWHDYVETGKVKADEFLQNVRLTSRDNSRTPFQWDGSKNAGFTSGKPWFKVNPNYQEINAVSQVTQPDSVFNYYRQLIKIRHDIPALTYGTYTDLDPANDSVYAYTRSLGAEKYLVVVNFKEQMMRYKLPDNLSIEKVIIDSNSKNVVKKNDSLLELKPWQSGVYKLNQ	soluble
MKKNFFSDLPEETIVNTLSFLKANTLARIAQTCQFFNRLANDKHLELHQLRQQHIKRELWGNLMVAARSNNLEEVKKILKKGIDPTQTNSYHLNRTPLLAAIEGKAYQTANYLWRKYTFDPNFKDNYGDSPISLLKKQLANPAFKDKEKKQIRALIRGMQEEKIAQSKCLVC	not soluble
MQTLKYISGYSPDIQRQVQQLLESGKLGDVLLRRHPQVHEIRSDKALYDYTQGIKNQFLRQSSPLSKVIFDDKISMSHHALGLHSYVARVQGNKIKAKNEIRISSRLKRVPEPLLRMVVVHELAHLKEKDHNKAFYNLCTYMEPDYHQFEFDLRLLLTCIDANQSPYATNSINLEHHHHHH	soluble
QVKPFSFVRDTDPVQLVNFLQSEHPQTIAVVLSYLDPPVAAQILGALPEELQTEVLKRIALLERTSPEVVKEIERNLEKKISGFVSRTFSKVGGIDTAAEIMNNLDRTTEKKIMDKLVQENPELADEIRRRMFVFEDILKLDDRSIQLVLREVDTRDLALALKGASDELKEKIFKNMSKRAAALLKDELEYMGPVRLKDVEEAQQKIINIIRRLEEAGEIVIARGGGEELIM	soluble
MGHHHHHHSHMTSELDIFVGNTTLIDEDVYRLWLDGYSVTDAVALRVRSGILEQTGATAAVLQSDTMDHYRTFHMLERLLHAPPKLLHQLIFQIPPSRQALLIERYYAFDEAFVREVLGKKLSKGTKKDLDDISTKTGITLKSCRRQFDNFKRVFKVVEEMRGSLVDNIQQHFLLSDRLARDYAAIVFFANNRFETGKKKLQYLSFGDFAFCAELMIQNWTLGAVGEAPTDP	not soluble
MGSDKIHHHHHHMSDVMNNSQIATQDNNLINELKTLIASAKQQAQVQVNAQMTLLYWQLGHRLQEHLLSNQRADYAKQIVKQVAQQLTYEYGKGFNEKSLRKMMQFYQAFPQQEIVSTLSRQLSWSHFVELLPIKAPVAREFYLQMAINDRWSVRTLRNRIDSMLFERTAVSKKPDELIKLELAQLENKQLSANMILKDPYMLDFLGVQDHYFEKDLEDAILRDLQQFLLELGSGFSFIGRQHRVQIGYYDFYIDLLFYNRKLKRLVAIDLKLGNFKAAYKGQMELYLRYLAKYEQEADERPPLGIILCASKDQEQVELLELDKSGIHVAEYLTALPPKEVLQQKLHQAISQNQQRFLAVNALDKDAGIASDAEEK	not soluble
AIHAVCVLKGDSPVTGTIHLKEEGDMVTVTGEITGLTPGKHGFHVHEFGDNTNGCTSAGGHFNPHGKEHGAPEDENRHAGDLGNVVAGEDGKAVINMKDKLVKLTGPDSVIGRTLVVHVDEDDLGRGGHEQSKITGNAGGRLACGVIGITKE	soluble
MNDPADTLRATLADLVDGLPPRQAARAVERLIANYRGDTPTDAPILRDRADVVAYAAYRMPATFAAVRSALTAFAEAVPDWVPGSHLDVGGGTGAATWAVSDTWGGTRPVTVLDWAEPALVLGQEIAASLPALREARWRRSRIGAALDIESVELVTVSYVLNELTGSDRAALVDAAAGAARAVVIVEAGTPAGYARVVEARDRLIAAGFRVAAPCPHSAACPIEAGTDWCHFAARVSRSSLHRQVKSGSLAYEDEKFSYVAATRLPVEPAASRVVRRPQIRKGQVLLDLCASDERLRRSTVTKRHGDLYKAARDAAWGDPWPPGEDLEHHHHHH	soluble
MGSDKIHHHHHHMSEVLKRRMRCAVYTRKSTDEGLDQEYNSIDAQRDAGHAYIASQRAEGWIPVADDYDDPAFSGGNMERPALQRMMADIEAGKIDVVVIYKIDRLTRSLADFSKMVEVFERYAVSFVSVTQQFNTTTSMGRLMLNILLSFAQFEREVTGERIRDKISASKRKGMWMGGVPPLGYDVENRRLVPNEREAKLIRHIFQRFVELGSSTALVKELKLDGVTSKAWTTQDGKTRDGRLIDKGHIYKLLSNRTYLGELRHKDQWYQAEHPPIINRELWDSVHAILETNGRVRGNTTRAKVPYLLKGIVFGNDGRALSPWHTTKKNGRRYRYYVPQRDAKEHAGASGLPRLPAAELESAVLDQLRAILRAPNLLGEMLPQAIKLDPTLDEAKITVAMTRLDAIWDQLFPAEQTRIVKLLVEKVIVSPNDLEVRLRANGIERLVLELRPEPVEQQEVARA	not soluble
